Values joined by “and” are separate entries in the source; they are usually repeats but may differ in a detail not shown here. Identical values can stand only once.
What was measured:
[1] = molecular target: human CD40 on primary human cells (tonsillar B cells, immature dendritic cells) (human, UniProt P25942 21-277); assay: cell-based or functional assay
human-CD40 monomer [2] = molecular target: T1, human-CD40 monomer (human, UniProt P25942 21-193, limits assumed); assay: SPR, Ab captured on protein A, CD40 monomer analyte
T1 construct: also called hCD40-monomer; human-CD40-monomer protein
Method: These chimeric antibodies were tested for CD40 and FcgR binding by SPR, as well as for iDC activation.

human-CD40 monomer [3] = molecular target: T1, human-CD40 monomer; assay: as above; remark: listed apart in the source
Text: Based on the supernatant screening SPR data and bias towards constructs with fewer framework back-mutations, a subset of humanized Y1238 antibodies were selected for expression, purification, and further characterization. Two of these antibodies (i.e., Y1238-hz1 and Y1238-hz2) were formatted with P238K and N297A isotypes (i.e., SEQ ID NOS: 39, 40, 42, and 43 for heavy chains; see TABLE 15 for light chains) and tested for CD40 and FcgR binding by SPR. […] The Fc domain is underlined.

human-CD40 monomer [4] = molecular target: T1, human-CD40 monomer; assay: as above; remark: listed apart in the source
human-CD40 monomer [5] = molecular target: T1, human-CD40 monomer; assay: SPR full kinetics, Ab on protein A
Method: The VH sequences were formatted in the context of an IgG1.3f isotype. The Vκ sequences were formatted as a full light chain with a common CL sequence. All 55 combinations of these humanized HC and LC constructs, as well as the chimeric Y1238 molecule were expressed as 3 ml supernatants for binding analysis by SPR. […] All antibodies, except for those containing hz-HC3, captured at high levels (>300 RU) using a 100-fold dilution of the expression supernatant, indicating a high antibody titer in the supernatant except for the hz-HC3 samples. The kinetic data for the two concentrations of hCD40-monomer were fit to a 1:1 Langmuir model, to yield estimates of the kinetic and affinity values for these interactions, and for comparison of the different molecules. […] Also, for a given heavy chain, the antibodies with light chains hz-LC1 or hz-LC2 had higher CD40 affinity than those with hz-LC3, hz-LC4 or hz-LC5.

human-CD40 monomer [6] = molecular target: T1, human-CD40 monomer; assay: SPR 2 pt screen, Ab on protein A
Outline: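 Antibodies as IgG1.3f supernatants (100-fold diluted) or purified chimeric IgG1, captured on a protein A chip; hCD40 monomer flowed over at 200 and 1000 nM by SPR. Kinetic and affinity values from a 1:1 Langmuir fit.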

T1 sequence (P25942 21-193 limits assumed): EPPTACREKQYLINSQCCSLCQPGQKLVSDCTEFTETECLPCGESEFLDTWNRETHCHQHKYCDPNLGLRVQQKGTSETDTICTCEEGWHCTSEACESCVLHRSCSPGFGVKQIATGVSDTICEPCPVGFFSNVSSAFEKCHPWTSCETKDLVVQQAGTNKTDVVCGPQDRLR
human CD40 on primary human cells (tonsillar B cells, immature dendritic cells), sequence (P25942 21-277 limits assumed): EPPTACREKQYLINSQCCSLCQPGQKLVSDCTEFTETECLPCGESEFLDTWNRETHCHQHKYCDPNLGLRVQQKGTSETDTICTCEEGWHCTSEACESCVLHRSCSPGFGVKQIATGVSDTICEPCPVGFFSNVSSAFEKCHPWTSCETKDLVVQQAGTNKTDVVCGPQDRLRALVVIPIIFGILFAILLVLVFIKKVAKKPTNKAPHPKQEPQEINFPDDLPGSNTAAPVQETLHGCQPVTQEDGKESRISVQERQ

Binder | IC50 for inhibition of proliferation of B cells, CD40L Trimer [1] [ng/mL] | IC50 for inhibition of proliferation of B cells, CHO CD40L [1] [ng/mL] | Kd (human-CD40 monomer [3]) [nM] | koff (human-CD40 monomer [3]) [s⁻¹] | kon (human-CD40 monomer [3]) [M⁻¹ s⁻¹] | Kd (human-CD40 monomer [5]) [nM] | koff (human-CD40 monomer [5]) [s⁻¹] | kon (human-CD40 monomer [5]) [M⁻¹ s⁻¹] | Kd (human-CD40 monomer [6]) | koff (human-CD40 monomer [6]) | kon (human-CD40 monomer [6]) | other results
Y1238 (antibody, V domains shown) VH: QVQLQQSGAELVRPGTSVKVSCKASGYAFTNYLIEWVKQRPGQGLEWIGVINPGSGGTNYNEKFKGKATLTADKSSSTAYMQLSSLTSDDSAVYFCARSQLGRRFDYWGQGTTLTVSS VL: DIVMTQSHKFMSTSVGDRVSITCKASQDVRTGVAWYQQKPGQSPKLLIYSASYRNTGVPDRFTGSRSGTDFTFTISSVQAEDLAVYYCQQHYSPPYTFGGGTKLEIK | 3.4 | 19.9 | – | – | – | – | – | – | – | – | – | –
Y1238-IgG1.3f (antibody, Chimeric mouse/human anti-human CD40; also called Y1238-hIgG1.3f; chimeric Y1238 IgG1.3f) heavy: QVQLQQSGAELVRPGTSVKVSCKASGYAFTNYLIEWVKQRPGQGLEWIGVINPGSGGTNYNEKFKGKATLTADKSSSTAYMQLSSLTSDDSAVYFCARSQLGRRFDYWGQGTTLTVSSASTKGPSVFPLAPSSKSTSGGTAALGCLVKDYFPEPVTVSWNSGALTSGVHTFPAVLQSSGLYSLSSVVTVPSSSLGTQTYICNVNHKPSNTKVDKRVEPKSCDKTHTCPPCPAPEAEGAPSVFLFPPKPKDTLMISRTPEVTCVVVDVSHEDPEVKFNWYVDGVEVHNAKTKPREEQYNSTYRVVSVLTVLHQDWLNGKEYKCKVSNKALPAPIEKTISKAKGQPREPQVYTLPPSREEMTKNQVSLTCLVKGFYPSDIAVEWESNGQPENNYKTTPPVLDSDGSFFLYSKLTVDKSRWQQGNVFSCSVMHEALHNHYTQKSLSLSPGK light: DIVMTQSHKFMSTSVGDRVSITCKASQDVRTGVAWYQQKPGQSPKLLIYSASYRNTGVPDRFTGSRSGTDFTFTISSVQAEDLAVYYCQQHYSPPYTFGGGTKLEIKRTVAAPSVFIFPPSDEQLKSGTASVVCLLNNFYPREAKVQWKVDNALQSGNSQESVTEQDSKDSTYSLSSTLTLSKADYEKHKVYACEVTHQGLSSPVTKSFNRGEC | – | – | – | – | – | – | – | – | – | – | – | Kd (human-CD40 monomer [2]): 2.1 nM; koff (human-CD40 monomer [2]): 0.00021 s⁻¹; kon (human-CD40 monomer [2]): 100000 M⁻¹ s⁻¹
Y1238-hz2-N297A (antibody, human IgG1, kappa, N297A, Humanized Y1238) heavy: not shown light: DIQMTQSPSSLSASVGDRVTITCKASQDVRTGVAWYQQKPGKAPKLLIYSASYRNTGVPSRFSGSRSGTDFTFTISSLQPEDIATYYCQQHYSPPYTFGGGTKVEIKRTVAAPSVFIFPPSDEQLKSGTASVVCLLNNFYPREAKVQWKVDNALQSGNSQESVTEQDSKDSTYSLSSTLTLSKADYEKHKVYACEVTHQGLSSPVTKSFNRGEC | 2.9 | 20 | 6 | 0.0004 | 66000 | – | – | – | – | – | – | –
Y1238-hz2-P238K (antibody, human IgG1, kappa, Humanized Y1238) heavy: not shown light: DIQMTQSPSSLSASVGDRVTITCKASQDVRTGVAWYQQKPGKAPKLLIYSASYRNTGVPSRFSGSRSGTDFTFTISSLQPEDIATYYCQQHYSPPYTFGGGTKVEIKRTVAAPSVFIFPPSDEQLKSGTASVVCLLNNFYPREAKVQWKVDNALQSGNSQESVTEQDSKDSTYSLSSTLTLSKADYEKHKVYACEVTHQGLSSPVTKSFNRGEC | 2.7 | 21 | 6.2 | 0.00043 | 70000 | – | – | – | – | – | – | –
5F11-45-IgG1.3f (antibody) heavy: QVQLVQSGAEVKKPGSSVKVSCKASGYTFTDLSMHWVRQAPGQGLEWMGYITPSSGYTAYNQKFKGKTTLTADKSTSTAYMELSSLRSEDTAVYYCARLILQRGAYWGQGTLVTVSSASTKGPSVFPLAPSSKSTSGGTAALGCLVKDYFPEPVTVSWNSGALTSGVHTFPAVLQSSGLYSLSSVVTVPSSSLGTQTYICNVNHKPSNTKVDKRVEPKSCDKTHTCPPCPAPEAEGAPSVFLFPPKPKDTLMISRTPEVTCVVVDVSHEDPEVKFNWYVDGVEVHNAKTKPREEQYNSTYRVVSVLTVLHQDWLNGKEYKCKVSNKALPAPIEKTISKAKGQPREPQVYTLPPSREEMTKNQVSLTCLVKGFYPSDIAVEWESNGQPENNYKTTPPVLDSDGSFFLYSKLTVDKSRWQQGNVFSCSVMHEALHNHYTQKSLSLSPGK light: DIVLTQSPDSLAVSLGERATINCRASKNVDSYGNSFMHWYQQKPGQPPKLLIYRASNLESGVPDRFSGSGSGTDFTLTISSLQAEDVAVYYCQQSNEDPLTFGQGTKLEIKRTVAAPSVFIFPPSDEQLKSGTASVVCLLNNFYPREAKVQWKVDNALQSGNSQESVTEQDSKDSTYSLSSTLTLSKADYEKHKVYACEVTHQGLSSPVTKSFNRGEC | – | – | – | – | – | – | – | – | – | – | – | Kd (human-CD40 monomer [4]): 1.6 nM; koff (human-CD40 monomer [4]): 0.00013 s⁻¹; kon (human-CD40 monomer [4]): 82000 M⁻¹ s⁻¹
BI-mAb-B (antibody, human IgG1, kappa, L234A L235A, V domains shown, Comparator anti-CD40 antibody; also called Antibody B (U.S. Pat. No. 9,090,696)) VH: EVQLVESGGGLVKPGGSLRLSCAASGFTFSDYGMHWVRQAPGKGLEWVAYISSGNRIIYYADTVKGRFTISRDNAKNSLYLQMNSLRAEDTAVYYCARQDGYRYAMDYWGQGTLVTVSS VL: DIVMTQSPDSLAVSLGEKVTINCKSSQSLLNSGNQKNYLTWHQQKPGQPPKLLIYWTSTRESGVPDRFSGSGSGTDFTLTISSLQAEDVAVYYCQNDYTYPLTFGGGTKVEIKR | 7.4 | – | 35 | 0.0021 | 61000 | – | – | – | – | – | – | –
humanized Y1238 hz1 (hz-HC1 / hz-LC1), IgG1.3f (antibody, V domains shown, IgG1.3f heavy constant, common CL; expression supernatant; also called Sup 1) VH: QVQLVQSGAEVKKPGASVKVSCKASGYAFTNYLIEWVRQAPGQGLEWMGVINPGSGGTNYNEKFKGRVTMTRDTSISTAYMELSRLRSDDTAVYYCARSQLGRRFDYWGQGTLVTVSS VL: DIQMTQSPSSLSASVGDRVTITCKASQDVRTGVAWYQQKPGKAPKLLIYSASYRNTGVPSRFSGSGSGTDFTFTISSLQPEDIATYYCQQHYSPPYTFGGGTKVEIK | – | – | – | – | – | 3 | 0.00019 | 65000 | 4.2 nM | 0.0002 s⁻¹ | 48000 M⁻¹ s⁻¹ | –
chimeric Y1238 supernatant (Sup 56; HC-Chim / LC-Chim) (antibody, Tested as expression supernatant) VH: QVQLQQSGAELVRPGTSVKVSCKASGYAFTNYLIEWVKQRPGQGLEWIGVINPGSGGTNYNEKFKGKATLTADKSSSTAYMQLSSLTSDDSAVYFCARSQLGRRFDYWGQGTTLTVSS light: DIVMTQSHKFMSTSVGDRVSITCKASQDVRTGVAWYQQKPGQSPKLLIYSASYRNTGVPDRFTGSRSGTDFTFTISSVQAEDLAVYYCQQHYSPPYTFGGGTKLEIKRTVAAPSVFIFPPSDEQLKSGTASVVCLLNNFYPREAKVQWKVDNALQSGNSQESVTEQDSKDSTYSLSSTLTLSKADYEKHKVYACEVTHQGLSSPVTKSFNRGEC | – | – | – | – | – | 2.6 | 0.00022 | 86000 | 5.6 nM | 0.00032 s⁻¹ | 57000 M⁻¹ s⁻¹ | –
purified Y1238-chimeric IgG1 antibody (antibody, Called IgG1; also called Y1238-IgG1; chimeric, purified) VH: QVQLQQSGAELVRPGTSVKVSCKASGYAFTNYLIEWVKQRPGQGLEWIGVINPGSGGTNYNEKFKGKATLTADKSSSTAYMQLSSLTSDDSAVYFCARSQLGRRFDYWGQGTTLTVSS light: DIVMTQSHKFMSTSVGDRVSITCKASQDVRTGVAWYQQKPGQSPKLLIYSASYRNTGVPDRFTGSRSGTDFTFTISSVQAEDLAVYYCQQHYSPPYTFGGGTKLEIKRTVAAPSVFIFPPSDEQLKSGTASVVCLLNNFYPREAKVQWKVDNALQSGNSQESVTEQDSKDSTYSLSSTLTLSKADYEKHKVYACEVTHQGLSSPVTKSFNRGEC | – | – | – | – | – | 3.2 | 0.00027 | 83000 | 6.7 nM and 6.9 nM and 8.6 nM | 0.00038 s⁻¹ and 0.0004 s⁻¹ and 0.0005 s⁻¹ | 56000 M⁻¹ s⁻¹ and 59000 M⁻¹ s⁻¹ and 58000 M⁻¹ s⁻¹ | –
